The values that follow come from patent publication US20170015742A1 (published 2017).

In assay [1] the target is recombinant human VEGF165 (human, UniProt P15692 207-395). Put plainly: cell-based or functional assay.
Assay [2] concerns the target recombinant human PDGF-BB (human, UniProt P01127 82-190). Put plainly: cell-based or functional assay.

Sequence of recombinant human VEGF165 (P15692 other isoform, or with tags, fused parts or gaps limits assumed): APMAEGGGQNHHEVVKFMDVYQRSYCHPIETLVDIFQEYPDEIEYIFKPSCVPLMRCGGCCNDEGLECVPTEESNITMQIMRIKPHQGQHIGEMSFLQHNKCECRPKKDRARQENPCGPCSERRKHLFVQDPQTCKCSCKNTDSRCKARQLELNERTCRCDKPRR
Sequence of recombinant human PDGF-BB (P01127 82-190 limits assumed): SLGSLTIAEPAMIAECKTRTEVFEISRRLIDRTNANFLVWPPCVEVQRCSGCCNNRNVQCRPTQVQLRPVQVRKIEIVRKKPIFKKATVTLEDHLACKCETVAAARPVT

B1: 9E10.1_GS_3E2.1 (bispecific antibody, human IgG1, kappa, L234A L235A)
heavy: EIQLVQSGSELKKPGASVKVSCKASGYTFTNYGMYWVKQAPGQGLEYMGWIDTETGRPTYADDFKGRFVFSLDTSVSTAYLQISSLKAEDTAVYFCARWSGDTTGIRGPWFAYWGQGTLVTVSSGGGGSGGGGSEVQLVQSGAEVKKPGSSVKVSCKASGYTFTESYMYWVKQAPGQGLELIGRIDPEDGSTDYVEKFKNKATLTADKSTSTAYMELSSLRSEDTAVYFCARFGARSYFYPMDAWGQGTTVTVSSASTKGPSVFPLAPSSKSTSGGTAALGCLVKDYFPEPVTVSWNSGALTSGVHTFPAVLQSSGLYSLSSVVTVPSSSLGTQTYICNVNHKPSNTKVDKKVEPKSCDKTHTCPPCPAPEAAGGPSVFLFPPKPKDTLMISRTPEVTCVVVDVSHEDPEVKFNWYVDGVEVHNAKTKPREEQYNSTYRVVSVLTVLHQDWLNGKEYKCKVSNKALPAPIEKTISKAKGQPREPQVYTLPPSREEMTKNQVSLTCLVKGFYPSDIAVEWESNGQPENNYKTTPPVLDSDGSFFLYSKLTVDKSRWQQGNVFSCSVMHEALHNAYTQKSLSLSPGK
light: DIRMTQSPSSLSASVGDRVTIECLASEDIYSDLAWYQQKPGKSPKLLIYNANGLQNGVPSRFSGSGSGTDYSLTISSLQPEDVATYFCQQYNYFPGTFGQGTKLEIKGGSGGGGSGGETVLTQSPATLSLSPGERATLSCRASESVSTLMHWYQQKPGQQPRLLIYGASNLESGVPARFSGSGSGTDFTLTISSLEPEDFAVYFCQQSWNDPWTFGGGTKVEIKRTVAAPSVFIFPPSDEQLKSGTASVVCLLNNFYPREAKVQWKVDNALQSGNSQESVTEQDSKDSTYSLSSTLTLSKADYEKHKVYACEVTHQGLSSPVTKSFNRGEC
Take B1: the “Potency IC50 (nM) HMVEC-d hVEGF165” value in assay [1] was 0.054 nM. For the same molecule, the “Potency IC50 (nM) NIH-3T3 hPDGF-BB” value in assay [2] was determined as 5.72 nM.

B2: 9E10.6_GS_3E2.1 (bispecific antibody, human IgG1, kappa, L234A L235A)
heavy: EVQLVQSGAEVKKPGSSVKVSCKASGYTFTNYGMYWVRQAPGQGLEWMGWIDTETGRPTYADDFKGRFTFTADKSTSTAYMELSSLRSEDTAVYYCARWSGDTTGIRGPWFAYWGQGTLVTVSSGGGGSGGGGSEVQLVQSGAEVKKPGSSVKVSCKASGYTFTESYMYWVKQAPGQGLELIGRIDPEDGSTDYVEKFKNKATLTADKSTSTAYMELSSLRSEDTAVYFCARFGARSYFYPMDAWGQGTTVTVSSASTKGPSVFPLAPSSKSTSGGTAALGCLVKDYFPEPVTVSWNSGALTSGVHTFPAVLQSSGLYSLSSVVTVPSSSLGTQTYICNVNHKPSNTKVDKKVEPKSCDKTHTCPPCPAPEAAGGPSVFLFPPKPKDTLMISRTPEVTCVVVDVSHEDPEVKFNWYVDGVEVHNAKTKPREEQYNSTYRVVSVLTVLHQDWLNGKEYKCKVSNKALPAPIEKTISKAKGQPREPQVYTLPPSREEMTKNQVSLTCLVKGFYPSDIAVEWESNGQPENNYKTTPPVLDSDGSFFLYSKLTVDKSRWQQGNVFSCSVMHEALHNAYTQKSLSLSPGK
light: DIRMTQSPSSLSASVGDRVTITCLASEDIYSDLAWYQQKPGKSPKLLIYNANGLQNGVPSRFSGSGSGTDYTLTISSLQPEDVATYFCQQYNYFPGTFGQGTKLEIKGGSGGGGSGGETVLTQSPATLSLSPGERATLSCRASESVSTLMHWYQQKPGQQPRLLIYGASNLESGVPARFSGSGSGTDFTLTISSLEPEDFAVYFCQQSWNDPWTFGGGTKVEIKRTVAAPSVFIFPPSDEQLKSGTASVVCLLNNFYPREAKVQWKVDNALQSGNSQESVTEQDSKDSTYSLSSTLTLSKADYEKHKVYACEVTHQGLSSPVTKSFNRGEC
Turning to B2, the “Potency IC50 (nM) HMVEC-d hVEGF165” value in assay [1] was found to be 0.06 nM. Moreover, in assay [2], the “Potency IC50 (nM) NIH-3T3 hPDGF-BB” value came to 1.32 nM.

B3: 1B10.1_GS_3E2.1 (bispecific antibody, human IgG1, kappa, L234A L235A)
heavy: EVQLVESGGGLVQPGGSLRLSCAASGFSFSKYDMAWFRQAPGKGLEWVASITTSGVGTYYRDSVKGRFTVSRDNAKSTLYLQMNSLRAEDTAVYYCARGYGAMDAWGQGTTVTVSSGGGGSGGGGSEVQLVQSGAEVKKPGSSVKVSCKASGYTFTESYMYWVKQAPGQGLELIGRIDPEDGSTDYVEKFKNKATLTADKSTSTAYMELSSLRSEDTAVYFCARFGARSYFYPMDAWGQGTTVTVSSASTKGPSVFPLAPSSKSTSGGTAALGCLVKDYFPEPVTVSWNSGALTSGVHTFPAVLQSSGLYSLSSVVTVPSSSLGTQTYICNVNHKPSNTKVDKKVEPKSCDKTHTCPPCPAPEAAGGPSVFLFPPKPKDTLMISRTPEVTCVVVDVSHEDPEVKFNWYVDGVEVHNAKTKPREEQYNSTYRVVSVLTVLHQDWLNGKEYKCKVSNKALPAPIEKTISKAKGQPREPQVYTLPPSREEMTKNQVSLTCLVKGFYPSDIAVEWESNGQPENNYKTTPPVLDSDGSFFLYSKLTVDKSRWQQGNVFSCSVMHEALHNAYTQKSLSLSPGK
light: DIQMTQSPSSLSASVGDRVTITCKASQDIDDYLSWYQQKPGKSPKLVIYAATRLADGVPSRFSGSGSGTDYTLTISSLQPEDFATYYCLQSSSTPWTFGGGTKVEIKGGSGGGGSGGETVLTQSPATLSLSPGERATLSCRASESVSTLMHWYQQKPGQQPRLLIYGASNLESGVPARFSGSGSGTDFTLTISSLEPEDFAVYFCQQSWNDPWTFGGGTKVEIKRTVAAPSVFIFPPSDEQLKSGTASVVCLLNNFYPREAKVQWKVDNALQSGNSQESVTEQDSKDSTYSLSSTLTLSKADYEKHKVYACEVTHQGLSSPVTKSFNRGEC
B3: the “Potency IC50 (nM) HMVEC-d hVEGF165” value in assay [1] worked out at 0.084 nM. Also, the “Potency IC50 (nM) NIH-3T3 hPDGF-BB” value in assay [2] amounted to 1.54 nM.

B4: 1B10.1_GS_CL-33675 (bispecific antibody, human IgG1, kappa, L234A L235A)
heavy: EVQLVESGGGLVQPGGSLRLSCAASGFSFSKYDMAWFRQAPGKGLEWVASITTSGVGTYYRDSVKGRFTVSRDNAKSTLYLQMNSLRAEDTAVYYCARGYGAMDAWGQGTTVTVSSGGGGSGGGGSEVTLRESGPALVKPTQTLTLTCTFSGFSLSTYGMGVGWIRQPPGKALEWLANIWWDDDKYYNPSLKNRLTISKDTSKNQVVLTMTNMDPVDTATYYCARIESSGPKYSFDYWGQGTMVTVSSASTKGPSVFPLAPSSKSTSGGTAALGCLVKDYFPEPVTVSWNSGALTSGVHTFPAVLQSSGLYSLSSVVTVPSSSLGTQTYICNVNHKPSNTKVDKKVEPKSCDKTHTCPPCPAPEAAGGPSVFLFPPKPKDTLMISRTPEVTCVVVDVSHEDPEVKFNWYVDGVEVHNAKTKPREEQYNSTYRVVSVLTVLHQDWLNGKEYKCKVSNKALPAPIEKTISKAKGQPREPQVYTLPPSREEMTKNQVSLTCLVKGFYPSDIAVEWESNGQPENNYKTTPPVLDSDGSFFLYSKLTVDKSRWQQGNVFSCSVMHEALHNAYTQKSLSLSPGK
light: DIQMTQSPSSLSASVGDRVTITCKASQDIDDYLSWYQQKPGKSPKLVIYAATRLADGVPSRFSGSGSGTDYTLTISSLQPEDFATYYCLQSSSTPWTFGGGTKVEIKGGSGGGGSGGEIVLTQSPGTLSLSPGERATLSCRASSGSIWYSFVSWYQQKPGQAPRLLIYADDQRASGIPDRFSGSGSGTDFTLTISRLEPEDFAVYYCQSYGINIDVVFGGGTKVEIKRTVAAPSVFIFPPSDEQLKSGTASVVCLLNNFYPREAKVQWKVDNALQSGNSQESVTEQDSKDSTYSLSSTLTLSKADYEKHKVYACEVTHQGLSSPVTKSFNRGEC
For the molecule B4, the “Potency IC50 (nM) HMVEC-d hVEGF165” value in assay [1] turned out to be 0.05 nM. Besides, in assay [2], the “Potency IC50 (nM) NIH-3T3 hPDGF-BB” value worked out at 0.037 nM.
